# Measured values taken from publication PMC4906247 (2016).
# B1: WT hDAPK2 expressed in HEK293T cells (CaM pull-down from lysate) [human] / calcium/calmodulin on Sepharose 4B (Sepharose 4B-CaM) [not stated] (parent complex)
# chain 1: MFQASMRSPNMEPFKQQKVEDFYDIGEELGSGQFAIVKKCREKSTGLEYAAKFIKKRQSRASRRGVSREEIEREVSILRQVLHHNVITLHDVYENRTDVVLILELVSGGELFDFLAQKESLSEEEATSFIKQILDGVNYLHTKKIAHFDLKPENIMLLDKNIPIPHIKLIDFGLAHEIEDGVEFKNIFGTPEFVAPEIVNYEPLGLEADMWSIGVITYILLSGASPFLGDTKQETLANITAVSYDFDEEFFSQTSELAKDFIRKLLVKETRKRLTIQEALRHPWITPVDNQQAMVRRESVVNLENFRKQYVRRRWKLSFSIVSLCNHLTRSLMKKVHLRPDEDLRNCESDTEEDIARRKALHPRRRSSTS
# chain 2: not shown
# Variants of: B1
# Test: CaM pull-down from HEK293T cell lysate, western blot; HEK293T transfected cells; EGTA-mediated elution on Sepharose 4B-CaM; read off a plot
row,response,Variant
1,~0.42 relative unit (normalized to W305D),"chain 1 R57E, chain 1 R60E, chain 1 R63E, chain 1 R64E, chain 1 W315D"
2,~1 relative unit (normalized to W305D),chain 1 W315D
